Experimental data published in PMC7967050.

Biological target: Recombinant human CD38 extracellular domain (amino acids 43–300, hCD38-ECD) (human) (UniProt P28907)
Test: BLI; Octet Red96, room temperature; biotin conjugated hCD38-ECD captured on SA biosensor; scFv in PBS, 0.02% Tween-20, 0.05% BSA, pH 7.4; association 300 s, dissociation 1200 s; 1:1 Langmuir model; for RP02 (biphasic dissociation) only the initial 0-330 s fitted, apparent KD

Kd: 8.6 nM
B1: anti-CD38 scFv antibody RP02 (scFv, V domains shown)
VH: PAQLVESGPGLVKPSGTLSLTCAVSGGSISSSNWWSWVRQPPGKGLEWIGEIYHSGSTNYNPSLKSRVTISVDKSKNQFSLKLSSVTAADTAVYYCAREDYYYYMDVWGKGTTVTVQS
VL: QSVLTQPPSVSAAPGQKVTISCSGSSSNIGNNYVSWYQQLPGTAPKLLIYDNNKRPSGIPDRFSGSKSGTSATLGITGLQTGDEADYYCGTWDSSLSAGVFGGGTKLTVL
